Measurements reported in US20210123036A1 (UNIVERSITY OF LIVERPOOL, published 2021).
Where no end group is shown, it is not given here.

What was measured:
type II collagen gelatin [1] = assay: cell-based or functional assay
[2] = target: type I collagen gelatin (skin gelatin); assay: ELISA-type plate binding assay, biotinylated protein on gelatin-coated plate
type II collagen gelatin [3] = target: T1, type II collagen gelatin; assay: as above
T1 construct: Denatured collagen, coated on plates (ELISA-type assay, cell adhesion) or added in solution (NMR); also called type II gelatin; collagen type II gelatin

type II collagen gelatin [4] = target: T1, type II collagen gelatin; assay: ELISA-type plate binding assay, comparison of Kd
Description: The chimeric peptides were assessed for binding to collagen type I and type II gelatin using the plate binding assay (described in the materials and methods section). […] A peptide comprising three modules corresponding to module 1 was not tested.

type II collagen gelatin [5] = target: T1, type II collagen gelatin; assay: ELISA-type plate binding assay, comparison of Kd (summary of the Examples)
[6] = target: type I collagen gelatin (skin gelatin); assay: ELISA-type plate binding assay, comparison of apparent Kd

Chain of type I collagen gelatin (skin gelatin) (P02453 162-1217, chain 1 of 2): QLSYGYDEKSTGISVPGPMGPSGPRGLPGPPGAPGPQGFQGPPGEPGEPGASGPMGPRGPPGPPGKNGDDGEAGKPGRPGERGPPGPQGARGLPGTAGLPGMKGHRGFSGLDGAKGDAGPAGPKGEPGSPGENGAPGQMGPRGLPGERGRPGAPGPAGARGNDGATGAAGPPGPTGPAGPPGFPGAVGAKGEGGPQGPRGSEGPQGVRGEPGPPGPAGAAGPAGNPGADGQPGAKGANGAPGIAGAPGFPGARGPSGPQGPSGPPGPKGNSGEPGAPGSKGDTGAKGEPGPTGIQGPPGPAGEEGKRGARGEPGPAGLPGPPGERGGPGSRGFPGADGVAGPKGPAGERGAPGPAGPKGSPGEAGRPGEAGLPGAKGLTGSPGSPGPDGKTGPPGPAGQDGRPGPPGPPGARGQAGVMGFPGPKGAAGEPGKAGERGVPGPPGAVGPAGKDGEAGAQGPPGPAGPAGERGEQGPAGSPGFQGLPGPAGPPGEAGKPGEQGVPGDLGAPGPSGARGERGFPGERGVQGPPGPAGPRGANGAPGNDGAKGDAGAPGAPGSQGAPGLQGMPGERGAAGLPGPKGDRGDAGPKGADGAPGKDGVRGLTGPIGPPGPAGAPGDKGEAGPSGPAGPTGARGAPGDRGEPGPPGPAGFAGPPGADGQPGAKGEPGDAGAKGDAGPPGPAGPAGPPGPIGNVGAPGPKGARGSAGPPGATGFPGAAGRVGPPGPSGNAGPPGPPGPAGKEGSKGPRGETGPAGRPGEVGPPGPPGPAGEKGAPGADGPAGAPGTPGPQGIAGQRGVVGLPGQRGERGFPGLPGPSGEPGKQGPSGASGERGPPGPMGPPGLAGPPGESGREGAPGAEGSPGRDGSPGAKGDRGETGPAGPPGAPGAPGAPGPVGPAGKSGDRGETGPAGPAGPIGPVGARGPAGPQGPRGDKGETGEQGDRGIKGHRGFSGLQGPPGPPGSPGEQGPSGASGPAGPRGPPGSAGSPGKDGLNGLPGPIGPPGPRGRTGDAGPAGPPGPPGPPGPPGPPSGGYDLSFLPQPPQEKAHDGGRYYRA
Chain of type I collagen gelatin (skin gelatin) (P02465 80-1117, chain 2 of 2, further chain): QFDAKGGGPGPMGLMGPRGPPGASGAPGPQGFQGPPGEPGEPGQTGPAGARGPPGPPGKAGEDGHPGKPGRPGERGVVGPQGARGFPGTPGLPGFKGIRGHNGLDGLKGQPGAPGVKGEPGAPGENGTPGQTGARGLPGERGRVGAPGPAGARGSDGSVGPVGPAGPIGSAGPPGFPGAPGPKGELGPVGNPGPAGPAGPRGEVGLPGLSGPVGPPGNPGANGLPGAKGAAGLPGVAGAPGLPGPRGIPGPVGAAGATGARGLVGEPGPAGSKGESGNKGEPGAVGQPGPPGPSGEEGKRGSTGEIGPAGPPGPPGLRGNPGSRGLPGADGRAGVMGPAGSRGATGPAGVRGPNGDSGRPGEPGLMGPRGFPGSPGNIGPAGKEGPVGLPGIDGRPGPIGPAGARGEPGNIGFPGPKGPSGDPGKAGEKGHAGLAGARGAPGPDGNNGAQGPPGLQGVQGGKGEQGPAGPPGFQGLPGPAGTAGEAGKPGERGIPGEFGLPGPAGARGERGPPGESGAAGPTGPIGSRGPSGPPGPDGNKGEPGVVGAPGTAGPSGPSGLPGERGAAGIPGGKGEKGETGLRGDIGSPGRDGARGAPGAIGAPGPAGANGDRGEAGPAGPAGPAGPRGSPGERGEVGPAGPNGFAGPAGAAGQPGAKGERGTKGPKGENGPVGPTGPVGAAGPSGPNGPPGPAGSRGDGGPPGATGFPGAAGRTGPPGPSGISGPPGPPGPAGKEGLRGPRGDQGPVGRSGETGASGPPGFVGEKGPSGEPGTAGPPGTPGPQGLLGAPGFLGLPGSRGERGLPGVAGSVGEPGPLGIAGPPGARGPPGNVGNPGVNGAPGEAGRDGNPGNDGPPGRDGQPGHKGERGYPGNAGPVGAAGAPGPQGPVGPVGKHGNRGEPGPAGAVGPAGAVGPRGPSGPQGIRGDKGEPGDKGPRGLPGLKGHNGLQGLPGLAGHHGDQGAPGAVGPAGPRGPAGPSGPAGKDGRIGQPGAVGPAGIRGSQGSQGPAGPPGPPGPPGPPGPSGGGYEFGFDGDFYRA

B1: conjugate comprising MSCs and the peptide 222 (other)
chain: EGQVVFTMYGNAEGQPCKFPFRFQGTSYDSCTTEGRTDGYRWCGTTEDYDRDKKYGFCPHEALFTMGGNAEGQPCKFPFRFQGTSYDSCTTEGRTDGYRWCGTTEDYDRDKKYGFCPETALFTMGGNAEGQPCKFPFRFQGTSYDSCTTEGRTDGYRWCGTTEDYDRDKKYGFCPDQGYSL
modifications: carboxylic residues cationised by covalent coupling of N,N'-dimethyl-1,3-propanediamine (DMPA); corona of glycolic acid ethoxylate 4-nonylphenyl ether surfactant; incorporated into the membrane of mesenchymal stem cells
In the case of B1, the “median % adhesion relative to plastic” value (type II collagen gelatin [1]) is reported as 224%.

B2: collagen binding domain (CBD) of gelatinase A (MMP-2) (other)
chain: ADGEYCKFPFLFNGKEYNSCTDTGRSDGFLWCSTTYNFEKDGKYGFCPHEALFTMGGNAEGQPCKFPFRFQGTSYDSCTTEGRTDGYRWCGTTEDYDRDKKYGFCPETAMSTVGGNSEGAPCVFPFTFLGNKYESCTSAGRSDGKMWCATTANYDDDRKWGFCPD
notes: Expressed in Shuffle T7 E. coli with a His6-SUMO tag that was cleaved off; also called CBD of MMP-2; Full length CBD
B2 was tested, and the Kd [2] was 2.58 nM and the Kd (type II collagen gelatin [3]) was 20.4 nM.

B3: peptide 222 comprising three modules corresponding to module 2 of the CBD of MMP-2 (designed binder)
chain: EGQVVFTMYGNAEGQPCKFPFRFQGTSYDSCTTEGRTDGYRWCGTTEDYDRDKKYGFCPHEALFTMGGNAEGQPCKFPFRFQGTSYDSCTTEGRTDGYRWCGTTEDYDRDKKYGFCPETALFTMGGNAEGQPCKFPFRFQGTSYDSCTTEGRTDGYRWCGTTEDYDRDKKYGFCPDQGYSL
notes: Expressed in Shuffle cells with a His6-SUMO tag that was cleaved off
B3 was tested, and the “fold higher affinity than 333” value (type II collagen gelatin [4]) was 10 fold, the “fold higher affinity than the full length CBD” value (type II collagen gelatin [4]) was 10 fold and the “fold higher affinity than the naturally occurring CBD of MMP-2” value (type II collagen gelatin [5]) was about 14 fold. It also gave a Kd [2] of 0.497 nM and a Kd (type II collagen gelatin [3]) of 1.46 nM.

B4: peptide 333 comprising three modules corresponding to module 3 of the CBD of MMP-2 (designed binder)
chain: EGQVVSTVYGNSEGAPCVFPFTFLGNKYESCTSAGRSDGFLWCATTANYDDDRKWGFCPHEALFTMGGNSEGAPCVFPFTFLGNKYESCTSAGRSDGKRWCATTANYDDDRKWGFCPETAMSTVGGNSEGAPCVFPFTFLGNKYESCTSAGRSDGKMWCATTANYDDDRKWGFCPDQGYSL
B4 gave a Kd [2] of 0.0159 nM and a Kd (type II collagen gelatin [3]) of 117 nM.

SEGAPCVFPFTFLGNKYESCTSAGRSDGKMWCATTANYDDDRKWGFCPD (other, cysteine pairing not given here; also: biotinylated for plate binding assay, also called M3) [module 3 of the CBD of MMP-2] was tested, and the “fold better binding than to type II gelatin” value [6] was 3 fold, the Kd [2] was 4090 nM and the Kd (type II collagen gelatin [3]) was 12000 nM.

AEGQPCKFPFRFQGTSYDSCTTEGRTDGYRWCGTTEDYDRDKKYGFCPE (other, cysteine pairing not given here; also: biotinylated for plate binding assay, also called M2) [module 2 of the CBD of MMP-2] showed a Kd [2] of 3720 nM and a Kd (type II collagen gelatin [3]) of 4260 nM.
